The target in assay [1] is HR4^Fei-0 (overexpressed in N. benthamiana) (A. thaliana). Description: SDS-resistant dimers on SDS-PAGE immunoblot. For orientation: A western blot detects proteins with antibodies after separation by electrophoresis.
Assay [2] addresses RPP7b-3×FLAG (A. thaliana). The experiment in a line: native gel or EMSA.

Consider 2 substances from publication doi:10.1101/682807.

Where “and” joins values, the source holds several entries; their conditions need not be identical. Identical values can stand only once.

The term stoichiometry N denotes a count of units in the complex or per binding partner. As for “HR4^Fei-0 (overexpressed in N. benthamiana) (natural protein)”, the stoichiometry N in assay [1] is 2. As for RPP7b-3×FLAG (natural protein), in assay [2], the stoichiometry N was 7 and 6.
